We go through 2 molecules from publication PMC8497992, “Structural and functional characterization explains loss of dNTPase activity of the cancer-specific R366C/H mutant SAMHD1 proteins”.

Holding throughout (assay): fluorescence polarization; 50 mM Tris-HCl pH 8.0, 50 mM KCl, 1 mM EDTA; 50 nM labeled oligonucleotide; temperature not stated
Holding throughout (conditions): protein: recombinant; chain copies: 2; label: 5'-6-carboxyfluorescein; single strand

The target in data set [1] is SAMHD1 HD domain R366H (UniProt Q9Y3Z3 114-626, R366H).
Sequence of SAMHD1 HD domain R366H (Q9Y3Z3 114-626 R366H): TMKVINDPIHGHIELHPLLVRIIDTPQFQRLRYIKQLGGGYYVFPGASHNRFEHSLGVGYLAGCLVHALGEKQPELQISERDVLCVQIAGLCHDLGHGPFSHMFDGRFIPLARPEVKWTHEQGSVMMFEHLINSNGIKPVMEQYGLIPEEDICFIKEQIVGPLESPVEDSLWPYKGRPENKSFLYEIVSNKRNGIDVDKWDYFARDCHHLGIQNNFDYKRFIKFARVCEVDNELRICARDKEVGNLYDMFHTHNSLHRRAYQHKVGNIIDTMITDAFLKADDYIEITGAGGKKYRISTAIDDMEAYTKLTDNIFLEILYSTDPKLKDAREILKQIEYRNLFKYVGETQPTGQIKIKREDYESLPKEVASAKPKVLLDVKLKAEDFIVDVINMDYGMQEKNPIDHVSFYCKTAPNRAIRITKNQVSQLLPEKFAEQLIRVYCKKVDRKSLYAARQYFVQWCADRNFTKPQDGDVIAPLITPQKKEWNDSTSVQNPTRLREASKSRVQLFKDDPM
Data set [2] deals with SAMHD1 HD domain WT (UniProt Q9Y3Z3 114-626).
Sequence of SAMHD1 HD domain WT (Q9Y3Z3 114-626): as the sequence (Q9Y3Z3 114-626 R366H) above, with H253R counted along it
Data set [3] addresses SAMHD1 HD domain R366C (UniProt Q9Y3Z3 114-626, R366C).

As a reminder, the Kd is the concentration at which binding is half-saturated.

Sequence of SAMHD1 HD domain R366C (Q9Y3Z3 114-626 R366C): as the sequence (Q9Y3Z3 114-626 R366H) above, with H253C counted along it

B1: 6FAM-ribo(C*G*C*C*U) (ssRNA)
RNA: CGCCU
modifications: * between all nucleotides (probably phosphorothioate; not defined in the material)
Consider B1, for which the results for the dissociation constant (Kd) in data set [1], in data set [2] and in data set [3] were 1120 ± 42 nM, 154 ± 4.2 nM and 1450 ± 51 nM, respectively.

B2: 6FAM-deoxy(C*G*C*C*T) (ssDNA)
DNA: CGCCT
modifications: * between all nucleotides (probably phosphorothioate; not defined in the material)
In the case of B2, the values for the Kd in data set [1], in data set [2] and in data set [3] were 606 ± 46 nM, 147 ± 8.3 nM and 689 ± 39 nM, respectively.
